Legend:
[1] = Hydrophobicity (hydrophobic index) relative to human insulin by isocratic RP-HPLC; assay type: physicochemical; settings: LiChrosorb RP18 column, isocratic elution at 40° C., sodium phosphate buffer pH 7.3/acetonitrile
Protocol: The elution was monitored by following the UV absorption of the eluate at 214 nm. Void time, t0, was found by injecting 0.1 mM sodium nitrate.

human insulin receptor = human insulin receptor (Homo sapiens, UniProt P06213); test: Insulin receptor binding, SPA microtiterplate antibody capture assay; settings: purified recombinant human insulin receptor - exon 11; A14 Tyr[125I]-human insulin tracer; 16 hours incubation
Protocol: SPA-PVT antibody-binding beads, anti-mouse reagent (Amersham Biosciences, Cat No. PRNQ0017) were mixed with 25 ml of binding buffer (100 mM HEPES pH 7.8; 100 mM sodium chloride, 10 mM MgSO4, 0.025% Tween-20). […] A total of 100 μl was then added and a dilution series is made from appropriate samples. To the dilution series was then added 100 μl of reagent mix and the samples were incubated for 16 hours while gently shaken. The phases were the then separated by centrifugation for 1 min and the plates counted in a Topcounter. The binding data were fitted using the nonlinear regression algorithm in the GraphPad Prism 2.01 (GraphPad Software, San Diego, Calif.).

Sequence of human insulin receptor (P06213 28-746 isoform P06213-2 limits assumed): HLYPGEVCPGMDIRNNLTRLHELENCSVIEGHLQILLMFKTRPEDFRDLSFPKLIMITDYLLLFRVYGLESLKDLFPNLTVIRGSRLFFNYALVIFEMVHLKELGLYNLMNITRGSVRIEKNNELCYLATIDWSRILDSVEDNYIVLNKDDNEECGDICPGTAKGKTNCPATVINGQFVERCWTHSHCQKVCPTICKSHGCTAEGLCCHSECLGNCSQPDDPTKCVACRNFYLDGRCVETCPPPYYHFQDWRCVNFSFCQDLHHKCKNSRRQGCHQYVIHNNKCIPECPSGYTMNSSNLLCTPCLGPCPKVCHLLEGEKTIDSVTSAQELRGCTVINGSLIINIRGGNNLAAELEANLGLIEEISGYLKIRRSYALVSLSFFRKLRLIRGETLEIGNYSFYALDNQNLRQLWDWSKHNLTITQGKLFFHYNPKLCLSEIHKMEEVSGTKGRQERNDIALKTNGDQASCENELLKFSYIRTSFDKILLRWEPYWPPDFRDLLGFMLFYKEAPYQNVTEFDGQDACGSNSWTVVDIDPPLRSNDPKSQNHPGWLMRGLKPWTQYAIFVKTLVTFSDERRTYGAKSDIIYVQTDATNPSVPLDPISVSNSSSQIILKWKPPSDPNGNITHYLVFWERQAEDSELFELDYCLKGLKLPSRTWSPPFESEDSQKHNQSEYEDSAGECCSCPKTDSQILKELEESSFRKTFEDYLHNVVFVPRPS
Sequence of human insulin receptor (P06213 763-1382 partner limits assumed): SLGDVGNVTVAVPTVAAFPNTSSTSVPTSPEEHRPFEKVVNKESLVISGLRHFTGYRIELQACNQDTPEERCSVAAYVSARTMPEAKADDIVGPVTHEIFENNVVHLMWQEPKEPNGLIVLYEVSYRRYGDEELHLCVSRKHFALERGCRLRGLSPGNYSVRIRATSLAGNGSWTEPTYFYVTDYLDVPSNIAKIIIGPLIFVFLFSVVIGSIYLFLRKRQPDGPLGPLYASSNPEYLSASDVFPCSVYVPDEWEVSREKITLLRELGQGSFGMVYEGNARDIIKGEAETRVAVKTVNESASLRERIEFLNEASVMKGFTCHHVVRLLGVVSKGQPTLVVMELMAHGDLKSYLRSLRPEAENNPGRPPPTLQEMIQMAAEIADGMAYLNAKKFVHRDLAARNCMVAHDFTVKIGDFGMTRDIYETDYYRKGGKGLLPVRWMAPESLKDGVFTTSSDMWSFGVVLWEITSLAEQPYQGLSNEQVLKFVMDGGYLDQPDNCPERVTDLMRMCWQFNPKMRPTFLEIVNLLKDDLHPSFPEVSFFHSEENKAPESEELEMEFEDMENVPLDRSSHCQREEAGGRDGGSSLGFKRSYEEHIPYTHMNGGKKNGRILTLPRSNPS

Substance	k′rel [1]	Receptor binding (% of human insulin) (human insulin receptor)
N^εB29-(3-carboxy-4-hexdecandioylaminobenzoyl) desB30 human insulin [Example 22]	1.075	–
N^εB29-11-(4-Carboxy-phenoxy) undecanoyl γ-L-glutamyl desB30 insulin [Example 26]	0.482	55 % of human insulin
N^εB29—[N—HOOC(CH2)14CO)—N-(carboxethyl)-CH2-ortho C6H4CO] desB30 human insulin [Example 7]	0.905	11 % of human insulin
N^εB29-[3-Carboxy-5-(octadecandioyl-N-carboxyethylglycin)aminobenzoyl] desB30 human insulin [Example 15]	0.662	–
N^εB29-[(5-{[(2-Carboxyethyl)-(15-carboxypentadecanoyl)amino]methyl}furan-2-carbonyl)desB30 human insulin [Example 5]	1.19	13 % of human insulin
N^εB29—N—(HOOC(CH2)15CO)—N-(carboxyethyl)-CH2-para-C6H4CO] desB30 human insulin [Example 4]	1.23	–
N^εB29-{4-Carboxy-4-[10-(4-carboxy-phenoxy)-decanoylamino]-butyryl}desB30 human insulin [Example 14]	0.388	46 % of human insulin
N^εB29—[N—(HOOC(CH2)14CO)—N-(carboxyethyl)-para-C6H4CO] desB30 human insulin [Example 8]	1.08	17 % of human insulin
N^εB29—[N—(HOOC(CH2)13CO)—N-(carboxyethyl)-CH2-para-C6H4CO] desB30 human insulin [Example 2]	0.81	28 % of human insulin
N^εB29-ω-carboxypentadecanoyl-γ-L-glutamyl 4-aminomethyl-benzoyl) desB30 human insulin [Example 11]	1.12	14 % of human insulin
N^εB29-ω-carboxypentadecanoyl-(4-aminomethylbenzoyl)-γ-L-glutamyl desB30 human insulin [Example 18]	1.18	–
N^εB29-(3-Carboxy-5-hexadecandioylaminobenzoyl) des(B30)insulin [Example 9]	1.7	12 % of human insulin
N^εB29-(3-Carboxy-5-(14-carboxytetradecyloxy)benzoyl) desB30 human insulin [Example 13]	1.175	–
N^εB29{3-[(3,5-Bis-carboxymethoxy-benzyl)-(15-carboxypentadecanoyl)amino]-propionyl desB30 human insulin [Example 16]	0.45	–
N^εB29-{4-[2-(4-carboxymethylphenyl)ethyl]phenyl}acetyl-γ-L-glutamyl desB30 human insulin [Example 21]	0.291	–
N^εB29-10-(4-carboxyphenylsulfanyl)decanoyl-γ-L-glutamyl desB30 human insulin [Example 23]	0.475	101 % of human insulin
N^εB29-(3-Carboxy-4-(14-carboxytetradecyloxy)benzoyl) desB30 human insulin [Example 12]	1.51	–
N^εB29-(3-Carboxy-5-octadecandioylaminobenzoyl) des(B30) human insulin [Example 10]	2.97	19 % of human insulin
N^εB29—[N—HOOC(CH2)14CO)—N-(carboxyethyl)-CH2-para-C6H4CO] desB30 human insulin [Example 1]	–	18 % of human insulin
N^εB29—N—(HOOC(CH2)16CO)—N(carboxyethyl)-CH2-para-C6H4CO] desB30 human insulin [Example 3]	2.03	15 % of human insulin
N^εB29-10-(4-Carboxyphenoxy)decanoyl beta-Asp desB30 insulin [Example 25]	0.348	42 % of human insulin
N^εB29-4-{[(2-Carboxyethyl)-(15-carboxypentadecanoyl)amino]methyl}benzoyl)-γ-L-glutamyl desB30 human insulin [Example 20]	0.399	–

Source: patent USRE46170E1, “Insulin derivatives” (Novo Nordisk A/S, priority 2005, dated 2016)
